{"source": "patent US20200079865A1", "about": "(Bristol-Myers Squibb, published 2020)", "binders": {"B1": {"name": "recombinant hGITR-L trimer (R&D Systems #6987-GL) (ligand)", "chain": "LQLETAKEPCMAKFGPLPSKWQMASSEPPCVNKVSDWKLEILQNGLYLIYGQVAPNANYNDVAPFEVRLYKNKDMIQTLTNKSKIQNVGGTYELHVGDTIDLIFNSEHQVLKNNTYWGIILLANPQFIS", "notes": "Bought soluble trimer, detected through a hemagglutinin (HA) tag; also called GITR Ligand; rhGITR-L"}}, "key": {"[1]": {"target": "T1, human GITR, membrane bound (on activated human T cells, 3A9-hGITR cells, huGITR knock-in mouse T cells) (human, UniProt Q9Y5U5 26-241)", "T1 construct": "also called TNFRSF18", "T1 sequence": "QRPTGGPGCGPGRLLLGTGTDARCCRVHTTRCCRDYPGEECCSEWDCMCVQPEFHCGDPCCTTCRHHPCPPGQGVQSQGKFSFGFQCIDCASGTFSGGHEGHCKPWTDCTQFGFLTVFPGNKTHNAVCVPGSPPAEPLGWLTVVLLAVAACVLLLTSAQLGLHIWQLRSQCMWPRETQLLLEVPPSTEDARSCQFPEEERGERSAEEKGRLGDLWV", "assay": "FACS competition on activated human CD4+ T cells: pre-bound GITR-L titrated, then 28F3-hIgG1 at a fixed 0.5 ug/mL, detected with PE anti-human IgG Fc; unit from the axis", "from_the_text": "(§1) The samples were acquired on a FACS Canto Flow Cytometer (BD, San Jose) and analyzed with FlowJo software (Tree Star, Inc, Ashland, Oreg.)."}, "[2]": {"target": "T1, human GITR, membrane bound (on …)", "assay": "FACS (MFI, PE anti-HA tag) on PHA-activated human T cells, CD8 column; the table's row head reads IC50, the text calls it EC50; unit from the axis", "from_the_text": "as §1"}, "[3]": {"target": "T1, human GITR, membrane bound (on …)", "assay": "FACS on PHA-activated human CD4+ and CD8+ T cells, anti-HA detection", "from_the_text": "as §1"}, "[4]": {"target": "T1, human GITR, membrane bound (on …)", "assay": "FACS competition on PHA-activated human T cells, pre-bound GITR-L against 0.5 ug/ml 28F3-hIgG1; partial inhibition", "from_the_text": "as §1"}, "[5]": {"target": "T1, human GITR, membrane bound (on …)", "assay": "FACS (MFI, PE anti-HA tag) on PHA-activated human T cells, CD4 column; the table's row head reads IC50, the text calls it EC50; unit from the axis", "from_the_text": "as §1"}}}
{"binder": "B1", "values": [{"measurement": "IC50", "setting": "[1]", "value": 0.00244, "unit": "µg/mL"}, {"measurement": "EC50", "setting": "[2]", "value": 0.0163, "unit": "µg/mL"}, {"measurement": "EC50", "setting": "[3]", "value": 0.016, "unit": "µg/mL"}, {"measurement": "IC50", "setting": "[4]", "value": 0.0024, "unit": "µg/mL"}, {"measurement": "EC50", "setting": "[5]", "value": 0.016, "unit": "µg/mL"}]}
